{
  "source": "IntAct's records for PubMed 18555782",
  "molecular_target": "hsp7f_yeast SSE1 (UniProt P32589)",
  "sequence (P32589 whole entry)": "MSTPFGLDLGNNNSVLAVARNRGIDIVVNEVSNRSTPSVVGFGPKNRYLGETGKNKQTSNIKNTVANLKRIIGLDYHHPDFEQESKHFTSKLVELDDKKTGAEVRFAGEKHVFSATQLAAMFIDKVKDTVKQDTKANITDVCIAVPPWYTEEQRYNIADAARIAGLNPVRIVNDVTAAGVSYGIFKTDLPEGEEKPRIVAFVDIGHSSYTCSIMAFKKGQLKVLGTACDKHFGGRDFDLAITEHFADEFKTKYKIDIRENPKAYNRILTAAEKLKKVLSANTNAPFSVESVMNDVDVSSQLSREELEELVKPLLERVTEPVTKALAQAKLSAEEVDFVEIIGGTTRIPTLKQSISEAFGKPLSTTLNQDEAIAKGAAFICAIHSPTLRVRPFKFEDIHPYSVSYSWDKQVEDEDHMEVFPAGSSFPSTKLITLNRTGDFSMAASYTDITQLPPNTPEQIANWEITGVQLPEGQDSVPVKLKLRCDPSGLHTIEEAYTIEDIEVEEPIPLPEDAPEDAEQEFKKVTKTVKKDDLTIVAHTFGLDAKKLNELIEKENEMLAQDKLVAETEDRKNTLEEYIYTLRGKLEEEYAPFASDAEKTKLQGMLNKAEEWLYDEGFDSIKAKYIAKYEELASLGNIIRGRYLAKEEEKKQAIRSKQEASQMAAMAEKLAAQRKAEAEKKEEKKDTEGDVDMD",
  "data": [
    {"substance": "Heat shock protein SSA1 (Saccharomyces cerevisiae), P10591 A297E", "values": [
      {"measurement": "effect of a mutation on the interaction", "result": "decreasing interaction"}
    ]},
    {"substance": "Heat shock protein SSA1 (Saccharomyces cerevisiae), P10591 Q31A", "values": [
      {"measurement": "effect of a mutation on the interaction", "result": "decreasing interaction"}
    ]}
  ]
}
